From patent publication US20140093973A1 (BOARD OF REGENTS OF THE UNIVERSITY OF OKLAHOMA, published 2014)
Ends that are not written are not given here.

Tests used:
soluble HLA-A*3402 = biological target: T1, soluble HLA-A*3402 (human); test: FP screen of 53 sHLA with FITC-peptide
T1 construct: Member of the panel of 53 single-specificity sHLA

soluble HLA-A*0301 = biological target: T2, soluble HLA-A*0301 (human); test: FP screen of 53 sHLA with FITC-peptide
T2 construct: Member of the panel of 53 single-specificity sHLA

soluble HLA-B*1801 = biological target: T3, soluble HLA-B*1801 (human); test: FP screen
T3 construct: Member of the panel of 53 single-specificity sHLA

soluble HLA-A*3002 = biological target: T4, soluble HLA-A*3002 (human); test: FP screen
T4 construct: Member of the panel of 53 single-specificity sHLA

soluble HLA-A*3601 = biological target: T5, soluble HLA-A*3601 (human); test: FP screen
T5 construct: Member of the panel of 53 single-specificity sHLA

[1] = biological target: T6, soluble HLA-A*4301 (sHLA-A*4301) (human); test: FP screen
T6 construct: Recombinant soluble class I with endogenous peptides, made as m1

soluble HLA-B*1501 = biological target: T7, soluble HLA-B*1501 (human); test: FP screen
T7 construct: Member of the panel of 53 single-specificity sHLA

soluble HLA-B*1512 = biological target: T8, soluble HLA-B*1512 (human); test: FP screen
T8 construct: Member of the panel of 53 single-specificity sHLA

soluble HLA-B*4402 = biological target: T9, soluble HLA-B*4402 (human); test: FP screen
T9 construct: Member of the panel of 53 single-specificity sHLA

[2] = biological target: T10, soluble HLA-B*2705 (sHLA-B*2705) (human); test: FP screen
T10 construct: Recombinant soluble class I with endogenous peptides, made as m1; negative control

soluble HLA-A*0101 = biological target: T11, soluble HLA-A*0101 (human); test: FP screen
T11 construct: Member of the panel of 53 single-specificity sHLA

soluble HLA-B*4001 = biological target: T12, soluble HLA-B*4001 (human); test: FP screen
T12 construct: Member of the panel of 53 single-specificity sHLA

soluble HLA-B*1302 = biological target: T13, soluble HLA-B*1302 (human); test: FP screen
T13 construct: Member of the panel of 53 single-specificity sHLA

[3] = biological target: soluble HLA-A*0201 (sHLA-A*0201) (human); test: FP screen
soluble HLA-A*2402 = biological target: T14, soluble HLA-A*2402 (human); test: FP screen
T14 construct: Member of the panel of 53 single-specificity sHLA

soluble HLA-B*4501 = biological target: T15, soluble HLA-B*4501 (human); test: FP screen
T15 construct: Member of the panel of 53 single-specificity sHLA

soluble HLA-A*6601 = biological target: T16, soluble HLA-A*6601 (human); test: FP screen
T16 construct: Member of the panel of 53 single-specificity sHLA

soluble HLA-A*2601 = biological target: T17, soluble HLA-A*2601 (human); test: FP screen
T17 construct: Member of the panel of 53 single-specificity sHLA

soluble HLA-A*2301 = biological target: T18, soluble HLA-A*2301 (human); test: FP screen
T18 construct: Member of the panel of 53 single-specificity sHLA

soluble HLA-B*4002 = biological target: T19, soluble HLA-B*4002 (human); test: FP screen
T19 construct: Member of the panel of 53 single-specificity sHLA

[4] = biological target: T20, soluble HLA-A*6901 (sHLA-A*6901) (human); test: FP screen
T20 construct: Recombinant soluble class I with endogenous peptides, made as m1

B1: KVFPKALINK, FITC-labeled A3-like peptide (peptide)
peptide: KVFPKALINK
modifications: also: FITC-labeled, position not given here
binding result (soluble HLA-A*3402): binds
binding result (soluble HLA-A*0301): binds
binding result (soluble HLA-B*1801): no binding (tested: 100 ug/ml sHLA)
binding result (soluble HLA-A*3002): no binding (tested: 100 ug/ml sHLA)
binding result (soluble HLA-A*3601): no binding (tested: 100 ug/ml sHLA)
binding result [1]: no binding (tested: 100 ug/ml sHLA)
binding result (soluble HLA-B*1501): no binding (tested: 100 ug/ml sHLA)
binding result (soluble HLA-B*1512): no binding (tested: 100 ug/ml sHLA)
binding result (soluble HLA-B*4402): no binding (tested: 100 ug/ml sHLA)
binding result [2]: no binding (tested: 100 ug/ml sHLA)
binding result (soluble HLA-A*0101): no binding (tested: 100 ug/ml sHLA)
binding result (soluble HLA-B*4001): no binding (tested: 100 ug/ml sHLA)
binding result (soluble HLA-B*1302): no binding (tested: 100 ug/ml sHLA)
binding result [3]: no binding (tested: 100 ug/ml sHLA)
binding result (soluble HLA-A*2402): no binding (tested: 100 ug/ml sHLA)
binding result (soluble HLA-B*4501): no binding (tested: 100 ug/ml sHLA)
binding result (soluble HLA-A*6601): no binding (tested: 100 ug/ml sHLA)
binding result (soluble HLA-A*2601): no binding (tested: 100 ug/ml sHLA)
binding result (soluble HLA-A*2301): no binding (tested: 100 ug/ml sHLA)
binding result (soluble HLA-B*4002): no binding (tested: 100 ug/ml sHLA)
binding result [4]: no binding (tested: 100 ug/ml sHLA)
